The labels stand for the following.
B1: MERVL-int (dsDNA)
DNA 1: CCATCTTTTGATAAACACCTCAGCCAACCATTCAA
DNA 2: TTGAATGGTTGGCTGAGGTGTTTATCAAAAGATGG
B2: MERVL-LTR (dsDNA)
DNA 1: CAGCTGTGTTCTAAGTGGTAAACAAATAATCTGCG
DNA 2: CGCAGATTATTTGTTTACCACTTAGAACACAGCTG
B3: MSR (dsDNA)
DNA 1: CTGAAAATCATGGAAAATGAGAAACATCCACTTGA
DNA 2: TCAAGTGGATGTTTCTCATTTTCCATGATTTTCAG
B4: Sox15 (dsDNA)
DNA 1: CAGAGGCTACTCTGAAACAAATAAAGAGATATAAA
DNA 2: TTTATATCTCTTTATTTGTTTCAGAGTAGCCTCTG
B5: MERVL-LTR_MUT (dsDNA)
DNA 1: CAGCTGTGTTCTAAGTGGTACACGCCTAATCTGCG
DNA 2: CGCAGATTAGGCGTGTACCACTTAGAACACAGCTG
B6: L1MdA (dsDNA)
DNA 1: GTACATAGGGAAGCAGGCTACCCGGGCCTGATCTG
DNA 2: CAGATCAGGCCCGGGTAGCCTGCTTCCCTATGTAC
B7: Hprt (dsDNA)
DNA 1: AGGGCGGGCCGAGGGGCGGAGCCTGGCCGGCAGCG
DNA 2: CGCTGCCGGCCAGGCTCCGCCCCTCGGCCCGCCCT
B8: MSR_MUT (dsDNA)
DNA 1: CTGAAAATCATGGAAAATGCGTGACGGCGACTTGA
DNA 2: TCAAGTCGCCGTCACGCATTTTCCATGATTTTCAG

One data set has as its target T1, GST-FOXD3 (mouse, UniProt Q61060 1-465).
T1 sequence: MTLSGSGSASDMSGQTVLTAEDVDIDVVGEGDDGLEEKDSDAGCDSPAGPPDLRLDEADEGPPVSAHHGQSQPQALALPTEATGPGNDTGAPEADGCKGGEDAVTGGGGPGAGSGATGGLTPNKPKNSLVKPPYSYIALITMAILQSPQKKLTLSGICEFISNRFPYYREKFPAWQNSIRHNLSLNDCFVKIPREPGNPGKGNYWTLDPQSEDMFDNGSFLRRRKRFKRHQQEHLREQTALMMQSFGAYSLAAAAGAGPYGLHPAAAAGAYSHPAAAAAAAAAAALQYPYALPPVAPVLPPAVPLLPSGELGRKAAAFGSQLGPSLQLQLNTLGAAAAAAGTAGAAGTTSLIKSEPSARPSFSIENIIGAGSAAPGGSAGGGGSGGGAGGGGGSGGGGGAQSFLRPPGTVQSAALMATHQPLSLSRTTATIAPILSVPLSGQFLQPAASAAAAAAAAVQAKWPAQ
The experiment in a line: EMSA; EMSA: 50 nM DNA, 20 mM Tris-HCl pH 8.0, 100 mM KCl, 3 mM MgCl2, 1 mM EDTA, 5% glycerol, 0.05% NP-40, 2 mM DTT, 50 ng/ml yeast tRNA, 2.5 ng/ml BSA, 4 C, 1 h. As to conditions: protein: recombinant; tags: N-terminal GST (pGEX-6P1); label: 5'-Cy5; blunt. On the technique in general: A gel shift assay detects complexes by their altered migration in electrophoresis.
Consider B1, for which the binding result is given as “binds”. As to B2, the binding result was “binds”. Turning to B3, the binding result is “binds”.

As for B4, the binding result is “binds”.

Another data set has as its target T1, GST-FOXD3. In words: EMSA; up to 2.5 uM protein; EMSA: 50 nM DNA, 20 mM Tris-HCl pH 8.0, 100 mM KCl, 3 mM MgCl2, 1 mM EDTA, 5% glycerol, 0.05% NP-40, 2 mM DTT, 50 ng/ml yeast tRNA, 2.5 ng/ml BSA, 4 C, 1 h. As to conditions: protein: recombinant; tags: N-terminal GST (pGEX-6P1); label: 5'-Cy5; blunt.
In the case of B5, the binding result was “no binding”. Turning to B6, the binding result is “no binding”. Regarding B7, the binding result is reported as “no binding”.

B8: the binding result is “no binding”.

For the origin of these results see paper PMC8647145, “Foxd3 controls heterochromatin‐mediated repression of repeat elements and 2‐cell state transcription”.
